Experiments:
[1] = test system: Ramos B cells; experiment: sIgM loss frequency assay (surrogate for SHM); assay type: cell-based, human; conditions: day 7 after sorting mCherry+ cells
Text: sIgM loss frequency provides a convenient surrogate assay for SHM (45, 46). To determine fractions of sIgM− cells, 2-5×10^5 cells were fixed in 3.7% formaldehyde and stained with anti-human IgM (1:500, Souther Biotech), and sIgM− variants quantified by FACS as described (47). To establish that selective pressure was not sufficient to affect the frequency of sIgM loss, we assayed loss of mCherry signal posttransduction (FIG. 18).

[2] = test system: Ramos B cells; experiment: Subcellular distribution of AID fusion proteins determined by HCS microscopy; assay type: cell-based, human; conditions: for Nuclear mCherry, mean: corrected for cytoplasmic baseline
Protocol: Cells were fixed in 3.7% formaldehyde at a density of 2×10^6 cells/ml and stained with whole cell stain (HCS CellMask, Invitrogen) and DAPI (0.2 μg/ml). Fixed cells were then washed, resuspended in PBS and spun down in a 96-well μclear microplate (Greiner Bio One) for imaging. Cells were imaged by Thermo Scientific ArrayScan VTI HCS reader, analyzing 3000-6000 cells in each treatment group. Cells with very low or very high mCherry signals were eliminated, gating based on the mock transduction control (low) and eliminating cells with signals more than 5 SD from the mean (high). The HCS Colocalization BioApplication protocol was used to determine nuclear and whole cell boundaries in individual cells as defined by DAPI and HCS CellMask, respectively, thereby defining the cytoplasmic region as the region between nuclear and whole cell boundaries. The average signal in the nuclear and cytoplasmic compartments was determined in individual cells by measuring the total intensity of mCherry signal divided by area within each compartment. The ratio of nuclear to cytoplasmic signal (N/C) was calculated as the ratio of the average signals of nuclear and cytoplasmic mCherry.
G1, S, and G2/M phase cells were distinguished by ranking DNA content as determined by total DAPI signal, and specific fractions of the population assigned to G1, S and G2/M phases (FIG. 16A). HCS results were expressed in terms of average signal, to ensure independence of cell size, which increases during cell cycle (FIG. 16).
Cells were fixed and stained with whole cell stain (HCS CellMask, Invitrogen) and DAPI, washed, and imaged by Thermo Scientific ArrayScan VTI HCS reader, analyzing 3000-6000 cells in each treatment group. To enable accurate comparisons among different transductant populations, nuclear signal for each cell was corrected by subtraction of the corresponding baseline value, as established by linear regression analysis. HCS results were expressed in terms of average signal, to ensure independence of cell size.

B1: AID^F193A-mCherry: AID-mCherry carrying the AID F193A mutation, which prevents nuclear export (protein, UniProt Q9GZX7 1-198, looked up, variant F193A)
Single-stranded DNA cytosine …: MDSLLMNRRKFLYQFKNVRWAKGRRETYLCYVVKRRDSATSFSLDFGYLRNKNGCHVELLFLRYISDWDLDPGRCYRVTWFTSWSPCYDCARHVADFLRGNPNLSLRIFTARLYFCEDRKAEPEGLRRLHRAGVQIAIMTFKDYFYCWNTFVENHERTFKAWEGLHENSVRLSRQLRRILLPLYEVDDLRDAARTLGL
modifications: C-terminal mCherry fusion
notes: AID-mCherry carrying the AID F193A mutation, which prevents nuclear export
sIgM loss rates [1]: greatly elevated | subcellular localization by HCS across cell cycle ([2]; G1, S, G2/M phase cells): persistent nuclear localization | Cytoplasmic mCherry, mean ([2]; G1 phase cells): 66.4 | Total mCherry, mean ([2]; G1 phase cells): 117.5 | Nuclear mCherry, mean ([2]; G1 phase cells): 75.4 | Cytoplasmic mCherry, mean ([2]; G2/M phase cells): 60.2 | Total mCherry, mean ([2]; G2/M phase cells): 109.7 | Nuclear mCherry, mean ([2]; G2/M phase cells): 63.6 | Cytoplasmic mCherry, mean ([2]; S phase cells): 58.6 | Total mCherry, mean ([2]; S phase cells): 103.2 | Nuclear mCherry, mean ([2]; S phase cells): 56.8 | Cytoplasmic mCherry, mean ([2]; whole transductant population): 62.9 | Total mCherry, mean ([2]; whole transductant population): 111.4 | Nuclear mCherry, mean ([2]; whole transductant population): 67.5

— patent publication US20160369258A1, “RESTRICTING NUCLEAR PROTEIN TO SPECIFIC PHASES OF THE CELL CYCLE” (UNIVERSITY OF WASHINGTON, priority 2014, published 2016)
